According to patent US20210130452A1 (Merck KGaA, published 2021):
Values joined by “and” are separate entries in the source; they are usually repeats but may differ in a detail not shown here. Equal entries are not always repeated. Where two headings read alike, the source gives them in different places.

How the values were obtained:
human IL-17F [1] = molecular target: T1, human IL-17F (human, UniProt Q96PD4 31-163); assay: AlphaScreen IL-17F-IL-17RC; reference itself
T1 construct: made in Hek293 cells (GenBank AF384857); also called hIL-17F; hIL17F
T1 sequence: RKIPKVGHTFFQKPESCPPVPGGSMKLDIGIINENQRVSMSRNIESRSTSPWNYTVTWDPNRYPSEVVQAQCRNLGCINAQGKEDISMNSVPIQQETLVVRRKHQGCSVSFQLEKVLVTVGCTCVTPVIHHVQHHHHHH

[2] = molecular target: T2, human IL-17A/F heterodimer (human, UniProt Q16552 24-155; Q96PD4 31-163, limits assumed); assay: SPR (Biacore) off-rate
T2 construct: bought, made in E. coli (R&D Systems 5194-IL/CF); also called hIL-17A/F; hIL17A/F
Target sequence in this assay (Q16552 24-155 limits assumed, chain 1 of 2, one chain of several): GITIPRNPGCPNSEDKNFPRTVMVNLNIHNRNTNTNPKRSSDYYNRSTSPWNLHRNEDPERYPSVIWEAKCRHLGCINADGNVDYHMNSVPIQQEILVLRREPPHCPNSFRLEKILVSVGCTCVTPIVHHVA

human IL-17F [3] = molecular target: T1, human IL-17F; assay: SPR (Biacore) off-rate
human IL-17F [4] = molecular target: T1, human IL-17F; assay: AlphaScreen IL-17F-IL-17RC; reference itself; remark: listed apart in the source
[5] = molecular target: T2, human IL-17A/F heterodimer; assay: cell-based or functional assay
Target sequence in this assay (Q16552 24-155 limits assumed, one chain of several): as the sequence (Q16552 24-155 limits assumed, chain 1 of 2, one chain of several) above

human IL-17F [6] = molecular target: T1, human IL-17F; assay: cell-based or functional assay
Cynomolgus monkey IL-17F [7] = molecular target: T3, Cynomolgus monkey IL-17F (Cynomolgus monkey, UniProt G7P4V0 31-163); assay: cell-based or functional assay
T3 sequence: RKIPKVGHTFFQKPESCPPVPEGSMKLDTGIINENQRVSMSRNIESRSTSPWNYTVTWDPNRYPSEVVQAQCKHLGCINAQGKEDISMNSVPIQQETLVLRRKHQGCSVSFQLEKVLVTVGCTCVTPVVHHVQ

[8] = molecular target: T2, human IL-17A/F heterodimer; assay: SPR (Biacore) off-rate; remark: listed apart in the source
Target sequence in this assay (Q16552 24-155 limits assumed, one chain of several): as the sequence (Q16552 24-155 limits assumed, chain 1 of 2, one chain of several) above

human IL-17F [9] = molecular target: T1, human IL-17F; assay: SPR (Biacore) off-rate; remark: listed apart in the source
Cynomolgus monkey IL-17F [10] = molecular target: T3, Cynomolgus monkey IL-17F; assay: SPR (Biacore) off-rate

IC50 fold difference vs WT (human IL-17F [1]): 1 fold | koff [2]: 0.0024 s⁻¹ | koff (human IL-17F [3]): 0.000405 s⁻¹ | IC50 fold difference vs WT (human IL-17F [4]): 1 fold | IC50 cell based assay hIL-17A/F [5]: 8 nM | IC50 cell based assay hIL-17F (human IL-17F [6]): 28 nM | IC50 cell based assay cyno IL-17F (Cynomolgus monkey IL-17F [7]): 7.3 nM | koff [8]: 0.00239 s⁻¹ and 0.0025 s⁻¹ | koff (human IL-17F [9]): 0.000382 s⁻¹ and 0.00041 s⁻¹ | koff (Cynomolgus monkey IL-17F [10]): 0.000636 s⁻¹
B1: IL17MS16A04 (VHH)
VHH: EVQLVESGGGLVQAGGSLRLSCAASGRTFSSYVVGWFRQAPGKEREFIGAISGSGDSIYYAVSEKDRFTISRDNGKNTLYLQMSSLKAEDTAVYYCTADQEFGYLRFGRSEYWGQGTQVTVSS
notes: Class 3 Nanobody, wild type; also called WT
